Measured values: paper PMC2064468 (The Journal of Cell Biology, 2007)

Target: T1, FtsY (bacterial SRP receptor), wild type, as used in the GTPase assays (Escherichia coli, UniProt P10121 1-497)
T1 sequence (looked up): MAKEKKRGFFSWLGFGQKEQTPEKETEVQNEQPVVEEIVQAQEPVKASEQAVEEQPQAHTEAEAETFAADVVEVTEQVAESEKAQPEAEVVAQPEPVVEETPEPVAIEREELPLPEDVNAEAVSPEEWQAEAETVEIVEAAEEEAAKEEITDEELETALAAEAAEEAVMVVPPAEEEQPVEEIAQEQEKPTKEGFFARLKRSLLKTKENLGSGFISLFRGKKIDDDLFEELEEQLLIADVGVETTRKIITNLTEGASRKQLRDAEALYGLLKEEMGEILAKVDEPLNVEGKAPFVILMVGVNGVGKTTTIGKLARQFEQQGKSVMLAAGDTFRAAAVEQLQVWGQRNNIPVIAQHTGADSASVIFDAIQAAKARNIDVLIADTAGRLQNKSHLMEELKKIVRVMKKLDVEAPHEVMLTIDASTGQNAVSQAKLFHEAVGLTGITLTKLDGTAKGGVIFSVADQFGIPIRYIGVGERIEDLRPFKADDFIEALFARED
Assay: GTPase inhibition

B1: SRP with Ffh A144W (bound to the 4.5S SRP RNA) (natural protein, Escherichia coli, UniProt P0AGD7 1-453, looked up)
chain: MFDNLTDRLSRTLRNISGRGRLTEDNVKDTLREVRMALLEADVALPVVREFINRVKEKAVGHEVNKSLTPGQEFVKIVRNELVAAMGEENQTLNLAAQPPAVVLMAGLQGAGKTTSVGKLGKFLREKHKKKVLVVSADVYRPAWIKQLETLAEQVGVDFFPSDVGQKPVDIVNAALKEAKLKFYDVLLVDTAGRLHVDEAMMDEIKQVHASINPVETLFVVDAMTGQDAANTAKAFNEALPLTGVVLTKVDGDARGGAALSIRHITGKPIKFLGVGEKTEALEPFHPDRIASRILGMGDVLSLIEDIESKVDRAQAEKLASKLKKGDGFDLNDFLEQLRQMKNMGGMASLMGKLPGMGQIPDNVKSQMDDKVLVRMEAIINSMTMKERAKPEIIKGSRKRRIAAGCGMQVQDVNRLLKQFDDMQRMMKKMKKGGMAKMMRSMKGMMPPGFPGR
Ki: 260 nM
